Experimental data reported in article PMC11079029, “Intramolecular autoinhibition regulates the selectivity of PRPF40A tandem WW domains for proline-rich motifs” (Nature Communications, 2024).

Legend:
[1] = molecular target: PRPF40A N-ext-WW12 (N-terminally extended WW tandem, residues 56-236) (human) (UniProt O75400); assay: ITC; PRPF40A construct (WW12, N-ext-WW12 or its mutant) in the cell, GB1-SF1 or GB1-SF3A1 construct in the syringe (as shown in Supplementary Figures 16 and 21); 25 °C, 20 mM sodium phosphate pH 6.5, 100 mM NaCl; one-site binding model; at least duplicates; affinities apparent
[2] = molecular target: PRPF40A N-ext-WW12 mutant (residues 56-236, PPVP/PALPP motifs changed to alanines) (human) (UniProt O75400); assay: as above
[3] = molecular target: GB1-SF1(596-611) 16-mer peptide; assay: ITC; MicroCal PEAQ-ITC, 25 °C, 20 mM sodium phosphate pH 6.5, 100 mM NaCl; PRPF40A constructs and GB1-tagged SF1 16-mer peptides; who was in the syringe is not stated for these panels (Fig. 2B, Fig. 5C); one-site model
[4] = molecular target: GB1-SF1 16-mer peptide 425-440; assay: ITC; GB1-peptide or GB1-SF1 construct in the cell, PRPF40A WW12 in the syringe (as shown in Supplementary Figures 7 and 16A); 25 °C, 20 mM sodium phosphate pH 6.5, 100 mM NaCl; one-site binding model; at least duplicates; affinities apparent
[5] = molecular target: GB1-SF1 16-mer peptide 470-485; assay: as above
[6] = molecular target: GB1-SF1 16-mer peptide 478-493; assay: as above
[7] = molecular target: GB1-SF1 16-mer peptide 575-590 (SF1 PRPF40A WW binding site, GB1-tagged); assay: as above
[8] = molecular target: GB1-SF1 16-mer peptide 596-611; assay: as above
[9] = molecular target: GB1-SF1 16-mer peptide 623-638; assay: as above

Substance | Kd [1] | stoichiometry N [1] | Kd [2] | stoichiometry N [2] | Kd [3] | Kd [4] | stoichiometry N [4] | Kd [5] | stoichiometry N [5] | Kd [6] | stoichiometry N [6] | Kd [7] | stoichiometry N [7] | Kd [8] | stoichiometry N [8] | Kd [9] | stoichiometry N [9]
GB1-SF1 16-mer peptide 575-590 (SF1 PRPF40A WW binding site, GB1-tagged) | 8.71 µM | 0.88 sites | 2.21 µM | 0.84 sites |  |  |  |  |  |  |  |  |  |  |  |  | 
PRPF40A WW12 (tandem WW domains, residues 141-236) (from UniProt O75400 141-236) (domain or fragment) |  |  |  |  | 65.9 µM | 20.2 µM | 0.87 sites | 13.9 µM | 0.9 sites | 9.59 µM | 0.8 sites | 1.4 µM | 1 sites | 65.9 µM | 1.1 sites | 23.3 µM | 0.95 sites
